Data published in patent US10124033B2, “Peptides and methods of use” (BAXALTA INCORPORATED, priority 2014, dated 2018).
Read-outs that look alike come from different tables or passages of the source. Residues, ends and D or L forms follow the SMILES beside them.

Key:
[1] = biological target: T1, Protein S/APC cofactor activity (Homo sapiens, UniProt P07225); experiment: CAT assay in pooled normal plasma supplemented with 3 nM APC; type: biochemical; details: 6 pM TF, 15 μM phospholipids
T1 construct: host or cells: plasma
T1 sequence (P07225 41-676 limits assumed): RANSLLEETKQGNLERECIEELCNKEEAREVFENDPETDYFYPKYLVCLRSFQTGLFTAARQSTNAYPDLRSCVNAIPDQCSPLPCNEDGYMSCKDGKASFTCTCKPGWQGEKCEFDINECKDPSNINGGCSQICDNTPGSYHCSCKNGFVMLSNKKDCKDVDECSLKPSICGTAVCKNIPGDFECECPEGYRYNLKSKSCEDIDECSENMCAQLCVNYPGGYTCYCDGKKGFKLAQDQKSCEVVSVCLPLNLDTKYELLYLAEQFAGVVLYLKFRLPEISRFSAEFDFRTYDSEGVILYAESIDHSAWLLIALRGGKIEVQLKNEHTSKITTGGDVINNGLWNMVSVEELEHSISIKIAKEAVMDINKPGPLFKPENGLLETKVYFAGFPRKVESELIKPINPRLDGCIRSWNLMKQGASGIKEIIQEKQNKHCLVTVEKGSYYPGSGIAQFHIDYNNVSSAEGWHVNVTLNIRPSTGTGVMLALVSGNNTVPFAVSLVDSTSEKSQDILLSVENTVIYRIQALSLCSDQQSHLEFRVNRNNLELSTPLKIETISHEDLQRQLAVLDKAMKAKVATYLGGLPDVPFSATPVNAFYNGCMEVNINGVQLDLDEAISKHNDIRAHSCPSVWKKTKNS
Description: Peptides also were tested for improvement of Protein S/APC-dependent thrombin generation in hemophilic plasma using a CAT assay. Protein S enhances the anticoagulation of APC in plasma. The CAT assay quantifies the effect of Protein S on APC-mediated thrombin generation initiated via the extrinsic coagulation pathway (Nicolaes, Blood Coagul. Fibrinolysis, 8:28 (1997)). APC (35 nM) and Protein S (25 nM) was added to Protein 5-depleted plasma, and plasma samples were incubated with high titer heat inactivated anti-human FVIII plasma raised in goat (4490 BU/ml; Baxter BioScience, Vienna, Austria; 50 BU/ml final plasma concentration). Thrombin formation in plasma was followed by calibrated automated thrombography (CAT) in a Fluoroskan Ascent® reader (Thermo Labsystems, Helsinki, Finland) and quantified via the thrombin peak-height. Thrombin generation was determined at high tissue factor (TF) concentration in the absence and in the presence of APC at a concentration that reduces the peak height to 20%. The inhibitory effect of peptides described herein on the APC cofactor activity of Protein S (PS) in plasma was measured in FVIII-inhibited pooled normal plasma supplemented with APC. Complete (100%) Protein S/APC inhibition is the height of the thrombin peak without addition of APC. Lack of (0%) PS/APC inhibition correlates to the thrombin peak-height value with a certain amount of APC. Peptides were ranked by their normalized values in comparison to the mean of wild-type controls including SD at two defined peptide concentrations (EC50 and EC90). […] For the assays, pooled normal plasma was supplemented with 3 nM APC and triggered with 6 pM TF, and 15 μM phospholipids (DOPC/POPS 80/20). Stock APC was diluted with TF-PL-MIX to 24 nM (plasma concentration: 3 nM).

[2] = biological target: T2, human full-length Protein S (Homo sapiens, UniProt P07225); experiment: Biacore (surface plasmon resonance) on immobilized Protein S; type: binding; details: Biacore; for koff / kon: Table 3; for Kd: affinity-matured and modified peptides, read-out: KD
T2 construct: using human full-length Protein S and human GAS6
T2 sequence (P07225 41-676 limits assumed): T1 sequence (P07225 41-676 limits assumed)
Description: (§1) Protein S affinity also was determined via Biacore (Biacore 3000 or Biacore T200) using human full-length Protein S and human GAS6. Briefly, 1000 RU of Protein S or GAS6 were immobilized on a CMS chip. In order to probe the kinetics of Protein S binding peptides to Protein S, the peptides were injected at various concentrations in a HBS-buffer containing 3 mM CaCl2 and 1% DMSO to the flow cell and allowed to interact with the immobilized proteins on the sensor chip. The chip could be regenerated with 4 M MgCl2 in HBS-buffer. Sensorgrams were fitted to a Langmuir binding model for the determination of kon and koff and the calculation of KD. Peptides were tested on their specificity to Protein S with peptide binding studies on the anti-target GAS6.

[3] = plasma stability in mouse plasma; type: in vitro ADME; details: 37° C.
Description: (§2) Affinity and activity of all 18 peptides was improved compared to parent JBS2572. […] Activity and stability were improved up to 1.5-fold. Plasma stability was determined in pooled normal human plasma and mouse plasma at 37° C.; exemplary results also are provided in Table 3.

[4] = plasma stability in pooled normal human plasma; type: in vitro ADME; details: pooled normal human plasma, 37° C., 6 hours
Description: as §2

[5] = biological target: T3, human GAS6 (Homo sapiens, UniProt Q14393); experiment: Biacore binding to anti-target GAS6; details: 1 μM peptide; sensorgrams reviewed visually
T3 sequence (Q14393 31-678): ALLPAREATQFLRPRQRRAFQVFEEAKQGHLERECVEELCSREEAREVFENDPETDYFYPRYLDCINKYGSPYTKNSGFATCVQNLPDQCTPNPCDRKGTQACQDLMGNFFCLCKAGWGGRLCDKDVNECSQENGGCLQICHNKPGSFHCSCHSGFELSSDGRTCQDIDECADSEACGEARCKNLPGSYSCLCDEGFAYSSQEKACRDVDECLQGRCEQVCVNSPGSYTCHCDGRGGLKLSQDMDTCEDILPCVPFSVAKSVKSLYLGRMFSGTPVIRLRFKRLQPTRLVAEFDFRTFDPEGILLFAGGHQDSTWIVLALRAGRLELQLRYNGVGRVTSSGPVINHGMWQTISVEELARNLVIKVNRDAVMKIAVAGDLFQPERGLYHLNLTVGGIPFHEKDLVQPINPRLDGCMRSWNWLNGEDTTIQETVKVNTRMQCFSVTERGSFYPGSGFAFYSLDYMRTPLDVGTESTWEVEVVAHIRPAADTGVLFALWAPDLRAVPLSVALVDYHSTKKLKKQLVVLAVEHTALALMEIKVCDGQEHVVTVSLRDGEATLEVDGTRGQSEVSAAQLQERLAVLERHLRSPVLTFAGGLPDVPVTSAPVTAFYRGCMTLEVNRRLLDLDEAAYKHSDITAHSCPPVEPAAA
Description: as §1
Interactions with the anti-target GAS6 were measured via Biacore (surface plasmon resonance) (see Example 2). The maximum signal from the interaction of the peptides with human GAS6 was much lower than the signals obtained with Protein S as interaction partner. Kinetic analysis of the low GAS6 binding signals was error prone, and sensorgrams were reviewed visually to estimate anti-target binding. […] The affinity of JBS2572 for the anti-target was at least 10 times less (indeed, at least 150 times less) than the affinity of the peptides for human Protein S. The data provided by this example confirm that peptides described herein specifically bind Protein S.

Compound | EC50 [1] | koff ([2]; read-out: koff) | kon ([2]; read-out: kon) | Kd [2] | Stability in mouse plasma; 4 hours [%] [3] | Stability in human plasma; 6 hours [%] [4] | koff [2] | kon [2] | binding to GAS6 [5]
CC(=O)N[C@H](C(=O)NCC(=O)N[C@@H](CC(C)C)C(=O)N[C@H](C(=O)N[C@@H](CO)C(=O)N[C@@H](C)C(=O)NCC(=O)N[C@@H](Cc1c[nH]c2ccccc12)C(=O)N[C@@H](Cc1ccc(O)cc1)C(=O)N[C@@H](CC(=O)O)C(=O)N[C@@H](Cc1ccc(O)cc1)C(=O)N[C@@H](CC(N)=O)C(=O)N[C@@H](Cc1ccccc1)C(=O)N[C@@H](CC(=O)O)C(=O)N[C@H](C(=O)N[C@@H](Cc1ccc(O)cc1)C(=O)N[C@H](C(=O)N[C@@H](CCC(=O)O)C(=O)N[C@@H](Cc1ccccc1)C(=O)N[C@H](C(N)=O)[C@@H](C)O)[C@@H](C)O)[C@@H](C)O)C(C)C)[C@@H](C)O [JBS3188] (Ac-TGLVSAGWYDYNFDTYTEFT-NH2) | 155 nM |  |  |  |  |  |  |  | 
CC[C@H](C)[C@H](NC(=O)[C@H](C)NC(C)=O)C(=O)N[C@@H](Cc1ccc(O)cc1)C(=O)N[C@H](C(=O)N[C@H](C(=O)N[C@@H](C)C(=O)NCC(=O)N[C@@H](Cc1c[nH]c2ccccc12)C(=O)N[C@@H](Cc1ccc(O)cc1)C(=O)N[C@@H](CC(=O)O)C(=O)N[C@@H](Cc1ccc(O)cc1)C(=O)N[C@@H](CC(N)=O)C(=O)N[C@@H](CC(N)=O)C(=O)N[C@@H](CC(=O)O)C(=O)N[C@H](C(=O)N[C@@H](Cc1ccc(O)cc1)C(=O)N[C@@H](Cc1ccc(O)cc1)C(=O)N[C@@H](CCC(=O)O)C(=O)N[C@@H](Cc1ccccc1)C(=O)N[C@H](C(N)=O)[C@@H](C)O)[C@@H](C)O)[C@@H](C)O)C(C)C [JBS3283] (Ac-AIYVTAGWYDYNNDTYYEFT-NH2) |  | 0.000322 s⁻¹ | 735000 M⁻¹ s⁻¹ | 0.4 nM | 94 ± 6% | 90 ± 9% |  |  | 
CC(=O)N[C@@H](Cc1c[nH]cn1)C(=O)N[C@@H](Cc1c[nH]c2ccccc12)C(=O)N[C@@H](Cc1ccc(O)cc1)C(=O)N[C@H](C(=O)N[C@@H](CO)C(=O)N[C@@H](C)C(=O)NCC(=O)N[C@@H](Cc1c[nH]c2ccccc12)C(=O)N[C@@H](Cc1ccc(O)cc1)C(=O)N[C@@H](CC(=O)O)C(=O)N[C@@H](Cc1ccc(O)cc1)C(=O)N[C@@H](CC(N)=O)C(=O)N[C@@H](CCC(=O)O)C(=O)N[C@@H](CC(=O)O)C(=O)N[C@@H](CCCCN)C(=O)N[C@@H](Cc1ccc(O)cc1)C(=O)N[C@@H](Cc1ccc(O)cc1)C(=O)N[C@@H](CCC(=O)O)C(=O)N[C@@H](Cc1ccccc1)C(=O)N[C@@H](CCC(=O)O)C(N)=O)C(C)C [JBS3306] (Ac-HWYVSAGWYDYNEDKYYEFE-NH2) |  | 0.000402 s⁻¹ | 1e+06 M⁻¹ s⁻¹ | 0.4 nM | 80 ± 14% | 84 ± 12% |  |  | 
JBS3318: JBS3319 conjugated to 40 kD PEG moiety (Ac-EYYVSAGWYDYNTDTYYEFEC-NH2; not fully specified (residue 21)) |  |  |  |  | 102 ± 20% | 114 ± 8% | 0.000213 s⁻¹ | 152000 M⁻¹ s⁻¹ | not to interact
JBS3321: tetramer of JBS3319 monomers together with a four arm 10 kD PEG moiety (Ac-EYYVSAGWYDYNTDTYYEFEC-NH2; not fully specified (residue 21); also: tetramer: four chains joined through C-terminal Cys maleimide to a four-arm 10 kD PEG core) |  |  |  |  | 94 ± 12% | 99 ± 6% | 3.88e-05 s⁻¹ | 1.58e+06 M⁻¹ s⁻¹ | 
JBS3322: JBS3206 monomer comprising a 40 kD PEG moiety (Ac-EYIVTAGWYDYNKDIYYEFKC-NH2; not fully specified (residue 21)) |  |  |  |  | 91 ± 26% | 131 ± 14% | 0.000278 s⁻¹ | 78000 M⁻¹ s⁻¹ | not to interact
